Data on 24 variants can be found in the supplement of paper PMC7125110.

± gives the standard error. Variants at the floor of the assay were thinned out.

To fix the notation:
B1: glmS ribozyme (parent)
chain: AUAAAAGCGCCAGAACUACAGAAAUGUAGUUGACGAGGAGGAGGUUUAUCGAAUUUUCGGCGGAUGCCUCCAAA

What all share (details): with glucosamine-6-phosphate
The variants in series [1] derive from B1. As to the kind of experiment: self-cleavage kobs at 40 uM GlcN6P; higher = faster cleavage; RNA array. The method, boiled down: (§1)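 Tiles bearing barcoded ribozyme variants, transcribed in situ by E. coli RNA polymerase on sequenced MiSeq chips, were imaged over ~14 h at 37 °C using a hybridised Cy3 probe. Glucosamine-6-phosphate was supplied at 40 μM to 10 mM in HEPES/KCl/Mg(OAc)2 buffer. kobs came from one- or two-exponential decay fits to normalised per-tile medians, and weighted Michaelis–Menten fits then provided kcat and KM.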

In series [2] the parent is B1. As to the kind of experiment: self-cleavage kobs at 160 uM GlcN6P; higher = faster cleavage; RNA array. The gist of the method: as §1
Variants of B1 are the subject of series [3]. Nature of the series: self-cleavage kobs at 640 uM GlcN6P; higher = faster cleavage; RNA array. The method, boiled down:
as §1

Series [4] covers variants of B1. Nature of the series: self-cleavage kobs at 2500 uM GlcN6P; higher = faster cleavage; RNA array. The method, boiled down:
as §1

In series [5] the parent is B1. As to the kind of experiment: self-cleavage kobs at 10000 uM GlcN6P; higher = faster cleavage; RNA array. The gist of the method: as §1

On to C8U U30C, for which, in the series with glucosamine-6-phosphate [1], the “self-cleavage kobs at 40 uM GlcN6P” value was less than 1e-05 s⁻¹. Also, the “self-cleavage kobs at 160 uM GlcN6P” value in the series with glucosamine-6-phosphate [2] was less than 1e-05 s⁻¹. Besides, the “self-cleavage kobs at 640 uM GlcN6P” value in the series with glucosamine-6-phosphate [3] was less than 1e-05 s⁻¹. Also, the “self-cleavage kobs at 2500 uM GlcN6P” value in the series with glucosamine-6-phosphate [4] is less than 1e-05 s⁻¹. In the series with glucosamine-6-phosphate [5], the “self-cleavage kobs at 10000 uM GlcN6P” value was less than 1e-05 s⁻¹.
For the variant A39C C50G U55C, the “self-cleavage kobs at 40 uM GlcN6P” value with glucosamine-6-phosphate [1] is less than 1e-05 s⁻¹. Further, the “self-cleavage kobs at 10000 uM GlcN6P” value with glucosamine-6-phosphate [5] is less than 1e-05 s⁻¹.
For G7A A12U A52U, the “self-cleavage kobs at 40 uM GlcN6P” value with glucosamine-6-phosphate [1] is less than 1e-05 s⁻¹.
On to G35C U49C, for which the “self-cleavage kobs at 40 uM GlcN6P” value with glucosamine-6-phosphate [1] was less than 1e-05 s⁻¹. For the same variant, the “self-cleavage kobs at 640 uM GlcN6P” value with glucosamine-6-phosphate [3] was less than 1e-05 s⁻¹.
In the case of G29U U45G G59C C67U, in the series with glucosamine-6-phosphate [1], the “self-cleavage kobs at 40 uM GlcN6P” value was less than 1e-05 s⁻¹. In the series with glucosamine-6-phosphate [5], the “self-cleavage kobs at 10000 uM GlcN6P” value was less than 1e-05 s⁻¹.
Consider C11G A39G G63U, for which the “self-cleavage kobs at 40 uM GlcN6P” value with glucosamine-6-phosphate [1] is less than 1e-05 s⁻¹. In addition, the “self-cleavage kobs at 2500 uM GlcN6P” value in the series with glucosamine-6-phosphate [4] was less than 1e-05 s⁻¹. In addition, the “self-cleavage kobs at 10000 uM GlcN6P” value in the series with glucosamine-6-phosphate [5] was less than 1e-05 s⁻¹.
Turning to U46G U54C, the “self-cleavage kobs at 40 uM GlcN6P” value with glucosamine-6-phosphate [1] came to 0.00019 ± 3.4e-05 s⁻¹. In addition, in the series with glucosamine-6-phosphate [5], the “self-cleavage kobs at 10000 uM GlcN6P” value is 0.00687 ± 0.0018 s⁻¹.
As for A42G U45G, the “self-cleavage kobs at 40 uM GlcN6P” value in the series with glucosamine-6-phosphate [1] was found to be 0.000836 ± 0.00024 s⁻¹. Further, the “self-cleavage kobs at 10000 uM GlcN6P” value in the series with glucosamine-6-phosphate [5] turned out to be 0.0514 ± 0.014 s⁻¹.
Turning to A42C G63A, the “self-cleavage kobs at 40 uM GlcN6P” value with glucosamine-6-phosphate [1] was less than 1e-05 s⁻¹. Besides, the “self-cleavage kobs at 160 uM GlcN6P” value in the series with glucosamine-6-phosphate [2] was less than 1e-05 s⁻¹. Also, in the series with glucosamine-6-phosphate [3], the “self-cleavage kobs at 640 uM GlcN6P” value was less than 1e-05 s⁻¹. In addition, the “self-cleavage kobs at 10000 uM GlcN6P” value with glucosamine-6-phosphate [5] is less than 1e-05 s⁻¹.
For the variant A48G U49C, in the series with glucosamine-6-phosphate [1], the “self-cleavage kobs at 40 uM GlcN6P” value is less than 1e-05 s⁻¹. Also, in the series with glucosamine-6-phosphate [2], the “self-cleavage kobs at 160 uM GlcN6P” value is less than 1e-05 s⁻¹. Moreover, the “self-cleavage kobs at 640 uM GlcN6P” value in the series with glucosamine-6-phosphate [3] was less than 1e-05 s⁻¹. For the same variant, in the series with glucosamine-6-phosphate [4], the “self-cleavage kobs at 2500 uM GlcN6P” value was less than 1e-05 s⁻¹. Also, the “self-cleavage kobs at 10000 uM GlcN6P” value in the series with glucosamine-6-phosphate [5] is less than 1e-05 s⁻¹.
For A12U U30C C68A, in the series with glucosamine-6-phosphate [1], the “self-cleavage kobs at 40 uM GlcN6P” value is less than 1e-05 s⁻¹.
In the case of U30C G43C, the “self-cleavage kobs at 40 uM GlcN6P” value with glucosamine-6-phosphate [1] is less than 1e-05 s⁻¹. Besides, the “self-cleavage kobs at 160 uM GlcN6P” value with glucosamine-6-phosphate [2] was less than 1e-05 s⁻¹. Besides, the “self-cleavage kobs at 640 uM GlcN6P” value with glucosamine-6-phosphate [3] was less than 1e-05 s⁻¹. Also, the “self-cleavage kobs at 2500 uM GlcN6P” value with glucosamine-6-phosphate [4] was less than 1e-05 s⁻¹. Besides, the “self-cleavage kobs at 10000 uM GlcN6P” value in the series with glucosamine-6-phosphate [5] was less than 1e-05 s⁻¹.
For C16A C34U, the “self-cleavage kobs at 40 uM GlcN6P” value in the series with glucosamine-6-phosphate [1] was less than 1e-05 s⁻¹. Also, the “self-cleavage kobs at 160 uM GlcN6P” value in the series with glucosamine-6-phosphate [2] is less than 1e-05 s⁻¹. The “self-cleavage kobs at 640 uM GlcN6P” value with glucosamine-6-phosphate [3] is less than 1e-05 s⁻¹. Besides, the “self-cleavage kobs at 2500 uM GlcN6P” value in the series with glucosamine-6-phosphate [4] is less than 1e-05 s⁻¹.
For the variant A15U A33G G38C G40C C68U, the “self-cleavage kobs at 40 uM GlcN6P” value in the series with glucosamine-6-phosphate [1] is less than 1e-05 s⁻¹. Besides, the “self-cleavage kobs at 10000 uM GlcN6P” value in the series with glucosamine-6-phosphate [5] is less than 1e-05 s⁻¹.
Turning to G35C G51A C68U, in the series with glucosamine-6-phosphate [1], the “self-cleavage kobs at 40 uM GlcN6P” value was less than 1e-05 s⁻¹.
As for A15U G43U U54C G60C C70G, in the series with glucosamine-6-phosphate [1], the “self-cleavage kobs at 40 uM GlcN6P” value was less than 1e-05 s⁻¹. Besides, the “self-cleavage kobs at 10000 uM GlcN6P” value with glucosamine-6-phosphate [5] was less than 1e-05 s⁻¹.
As to U30C A52C A64C, in the series with glucosamine-6-phosphate [1], the “self-cleavage kobs at 40 uM GlcN6P” value is less than 1e-05 s⁻¹.
On the same count and under the same terms, then C16U C34U G37U, with less than 1e-05 s⁻¹.
As for G41U C50A, the “self-cleavage kobs at 40 uM GlcN6P” value with glucosamine-6-phosphate [1] was less than 1e-05 s⁻¹. Further, the “self-cleavage kobs at 160 uM GlcN6P” value with glucosamine-6-phosphate [2] was less than 1e-05 s⁻¹. In the series with glucosamine-6-phosphate [3], the “self-cleavage kobs at 640 uM GlcN6P” value is less than 1e-05 s⁻¹. The “self-cleavage kobs at 2500 uM GlcN6P” value in the series with glucosamine-6-phosphate [4] is less than 1e-05 s⁻¹. The “self-cleavage kobs at 10000 uM GlcN6P” value with glucosamine-6-phosphate [5] is less than 1e-05 s⁻¹.
G44U A52G A53U: the “self-cleavage kobs at 40 uM GlcN6P” value with glucosamine-6-phosphate [1] is less than 1e-05 s⁻¹. Besides, the “self-cleavage kobs at 10000 uM GlcN6P” value with glucosamine-6-phosphate [5] was less than 1e-05 s⁻¹.
Consider G32C U45G U65A, for which, in the series with glucosamine-6-phosphate [1], the “self-cleavage kobs at 40 uM GlcN6P” value is less than 1e-05 s⁻¹. For the same variant, the “self-cleavage kobs at 640 uM GlcN6P” value with glucosamine-6-phosphate [3] is less than 1e-05 s⁻¹. The “self-cleavage kobs at 10000 uM GlcN6P” value with glucosamine-6-phosphate [5] is less than 1e-05 s⁻¹.
Consider G29A A42C, for which, in the series with glucosamine-6-phosphate [1], the “self-cleavage kobs at 40 uM GlcN6P” value is less than 1e-05 s⁻¹. In addition, the “self-cleavage kobs at 160 uM GlcN6P” value with glucosamine-6-phosphate [2] is less than 1e-05 s⁻¹. In the series with glucosamine-6-phosphate [3], the “self-cleavage kobs at 640 uM GlcN6P” value is less than 1e-05 s⁻¹. For the same variant, the “self-cleavage kobs at 10000 uM GlcN6P” value with glucosamine-6-phosphate [5] is less than 1e-05 s⁻¹.
For the variant U45G C50U A64G, the “self-cleavage kobs at 40 uM GlcN6P” value with glucosamine-6-phosphate [1] was less than 1e-05 s⁻¹. Also, in the series with glucosamine-6-phosphate [3], the “self-cleavage kobs at 640 uM GlcN6P” value was less than 1e-05 s⁻¹.
With G40A C61A, the “self-cleavage kobs at 40 uM GlcN6P” value in the series with glucosamine-6-phosphate [1] is less than 1e-05 s⁻¹. For the same variant, the “self-cleavage kobs at 160 uM GlcN6P” value with glucosamine-6-phosphate [2] was less than 1e-05 s⁻¹. In addition, the “self-cleavage kobs at 640 uM GlcN6P” value in the series with glucosamine-6-phosphate [3] was less than 1e-05 s⁻¹.
